From publication PMC7022901, “Back to GroEL-Assisted Protein Folding: GroES Binding-Induced Displacement of Denatured Proteins from GroEL to Bulk Solution” (Biomolecules, 2020) come the findings set out here.

The target in assay [1] is T1, GroEL chaperonin (Escherichia coli, UniProt P0A6F5 1-548).
T1 construct: GroEL (hsp60) chaperonin of Escherichia coli, expressed from the cloned groE operon; 14 identical subunits of 57 kDa in two heptameric rings; no tag is mentioned; also called hsp60; GroEL14; source: E. coli HB101, multicopy plasmid pGroE4 (groE operon of E. coli in pACYC184), purified; copies: 14
The assay can be described thus: native gel or EMSA; non-denaturing electrophoresis of GroEL with equimolar fluorescein-labeled denatured proteins in the presence of DTT and Mg-ADP, before and after 10 min incubation with a two-fold molar excess of GroES; Coomassie staining and fluorescence. Conditions: both partners purified. A general note: In EMSA bound probe runs differently from free probe, usually more slowly.

In assay [2] the target is T1, GroEL chaperonin. The assay can be described thus: FRET or BRET; streptavidin trap: denatured biotin- and fluorescein-labeled substrate diluted into equimolar GroEL, then streptavidin-aequorin and free biotin added; BRET (I520/I470) from aequorin to fluorescein reports substrate free in bulk solution; with or without 10 mM Mg-ATP and two-fold molar excess of GroES. Conditions: both partners purified.

T1 sequence (P0A6F5 whole entry): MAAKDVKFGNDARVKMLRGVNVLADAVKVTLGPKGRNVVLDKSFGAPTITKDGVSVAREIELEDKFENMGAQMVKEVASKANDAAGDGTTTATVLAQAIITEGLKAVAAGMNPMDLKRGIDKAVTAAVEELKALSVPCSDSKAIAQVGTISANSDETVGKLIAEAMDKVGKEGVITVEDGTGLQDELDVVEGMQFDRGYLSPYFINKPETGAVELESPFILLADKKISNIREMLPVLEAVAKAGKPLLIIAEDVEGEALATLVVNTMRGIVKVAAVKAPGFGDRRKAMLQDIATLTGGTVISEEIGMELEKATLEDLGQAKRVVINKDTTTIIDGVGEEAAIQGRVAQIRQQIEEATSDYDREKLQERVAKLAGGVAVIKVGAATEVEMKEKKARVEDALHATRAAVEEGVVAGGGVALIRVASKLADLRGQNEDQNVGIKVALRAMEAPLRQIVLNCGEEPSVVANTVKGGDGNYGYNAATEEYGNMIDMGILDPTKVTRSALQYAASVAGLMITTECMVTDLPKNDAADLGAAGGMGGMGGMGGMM

B1: GroES co-chaperonin (natural protein, Escherichia coli, UniProt P0A6F9 1-97, looked up)
chain: MNIRPLHDRVIVKRKEVETKSAGGIVLTGSAAAKSTRGEVLAVGNGRILENGEVKPLDVKVGDIVIFNDGYGVKSEKIDNEEVLIMSESDILAIVEA
notes: GroES (hsp10) co-chaperonin of Escherichia coli, expressed from the cloned groE operon; 7 identical subunits of ~10 kDa; no tag is mentioned; also called hsp10; GroES7; source: E. coli HB101, multicopy plasmid pGroE4 (groE operon of E. coli in pACYC184), purified
For the molecule B1, in the assay with GroEL chaperonin [1], the binding result is recorded as “binds”.

B2: biotin- and fluorescein-labeled pig mitochondrial malate dehydrogenase, early refolding intermediate (natural protein, UniProt P00346 25-338, looked up)
chain: AKVAVLGASGGIGQPLSLLLKNSPLVSRLTLYDIAHTPGVAADLSHIETRATVKGYLGPEQLPDCLKGCDVVVIPAGVPRKPGMTRDDLFNTNATIVATLTAACAQHCPDAMICIISNPVNSTIPITAEVFKKHGVYNPNKIFGVTTLDIVRANAFVAELKGLDPARVSVPVIGGHAGKTIIPLISQCTPKVDFPQDQLSTLTGRIQEAGTEVVKAKAGAGSATLSMAYAGARFVFSLVDAMNGKEGVVECSFVKSQETDCPYFSTPLLLGKKGIEKNLGIGKISPFEEKMIAEAIPELKASIKKGEEFVKNMK
modifications: fluorescein label (5(6)-FAM, SE); biotin (biotin succinimide ester)
notes: pig mitochondrial malate dehydrogenase; also called BFM; MDH; source: bought: Sigma or Serva, additionally purified by ion-exchange and size-exclusion chromatography
In the case of B2, the binding result with GroEL chaperonin [2] was “binds”.
